Source: US20220411472A1 (FRED HUTCHINSON CANCER CENTER, published 2022)
Read-outs that look alike come from different tables or passages of the source. Each block holds one molecule with its values, some of them ahead of it.

Experiments:
[1] = biological target: Biotinylated Tir-10_v2 peptide, Biotin-Ahx-EHI-pY-DEVAAD
[2] = biological target: Tir10 phosphotyrosyl peptide, FITC-Ahx-EHI-pY-DEVAAD
[3] = biological target: Biotinylated Tir-10_v2 peptide, Biotin-Ahx-EHI-pY-DEVAAD; remark: listed apart in the source
[4] = biological target: T1, OX40 receptor on activated human CD8+ T-cells (human, UniProt P43489 29-277); experiment: flow cytometry, CD8+ T-cells 4 days after anti-CD3/anti-CD28 bead activation, 2 µg/mL construct, secondary anti-His iFluor647; axis APC: OX40; lower panel
T1 construct: whole, on cells; also called CD134
T1 sequence (looked up): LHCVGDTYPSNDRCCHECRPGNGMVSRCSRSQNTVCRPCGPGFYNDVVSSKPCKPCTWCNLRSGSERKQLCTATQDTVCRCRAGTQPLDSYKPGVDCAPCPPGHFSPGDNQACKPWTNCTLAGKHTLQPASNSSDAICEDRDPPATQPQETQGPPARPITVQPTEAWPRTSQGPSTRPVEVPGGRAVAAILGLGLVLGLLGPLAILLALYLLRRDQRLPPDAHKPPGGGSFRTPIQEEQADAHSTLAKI
Method: T-cell isolation, proliferation and activation assays. […] Cells were incubated for 30 min at 37° C. with cTRP24₆SS-scTrimer^OX40L (2 μg/mL) or cTRP24₆SS-scTrimer^4-1BBL (2 μg/mL) and subsequently stained at 4° C. using THE anti-His Ab (GenScript; #A00186).

Molecule: Free SH2 domain of the human Nck2 adapter protein
maximum binding response [1]: 125 RU | EC50 (read off the curve) [2]: 400 nM | maximum binding response [3]: 10 RU | response [3]: 80 RU

binding result [4]: binds
B1: cTRP246SS-scTrimer^OX40L (6-repeat disulfide-stapled cTRP tetramer with a single chain trimer of OX40L on each subunit) (ligand)
chain: QVSHRYPRIQSIKVQFTEYKKEKGFILTSQKEDEIMKVQNNSVIINCDGFYLISLKGYFSQEVNISLHYQKDEEPLFQLKKVRSVNSLMVASLTYKDKVYLNVTTDNTSLDDFHVNGGELILIHQNPGEFCVLGGGGSQVSHRYPRIQSIKVQFTEYKKEKGFILTSQKEDEIMKVQNNSVIINCDGFYLISLKGYFSQEVNISLHYQKDEEPLFQLKKVRSVNSLMVASLTYKDKVYLNVTTDNTSLDDFHVNGGELILIHQNPGEFCVLGGGGSQVSHRYPRIQSIKVQFTEYKKEKGFILTSQKEDEIMKVQNNSVIINCDGFYLISLKGYFSQEVNISLHYQKDEEPLFQLKKVRSVNSLMVASLTYKDKVYLNVTTDNTSLDDFHVNGGELILIHQNPGEFCVLGGGGSGGGGSCEAIKAAAELGKAGISSEEILELLRAAHELGLDPEAIKAAAELGKAGISSEEILELLRAAHELGLDPEAIKAAAELGKAGISSEEILELLRAAHELGLDPEAIKAAAELGKAGISSEEILELLRAAHELGLDPEAIKAAAELGKAGISSEEILELLRAAHELGLDPECIKAAAELGKAGISSEEILELLRAAHELGLGGSHHHHHH
notes: also called cTRP246SS-scTrimer^OX4OL; cTRP246SS-scFv^OX40L
